Data as given in PMC3774798 (PLoS ONE, 2013).

Experiments:
[1] = tested on: Nc1nc2c(ncn2[C@@H]2O[C@@H]3CO[P@](=O)(O)O[C@H]4[C@@H](O)[C@H](n5cnc6c(=O)[nH]c(N)nc65)O[C@@H]4CO[P@](=O)(O)O[C@H]3[C@H]2O)c(=O)[nH]1; test: purified protein
[2] = tested on: Nc1nc2c(ncn2[C@@H]2O[C@H](COP(=O)(O)O[C@H]3[C@@H](O)[C@H](n4cnc5c(=O)[nH]c(N)nc54)O[C@@H]3COP(=O)(O)O)[C@@H](O)[C@H]2O)c(=O)[nH]1; test: purified protein; details: Mg2+ and/or Mn2+
[3] = molecular target: T1, PA4781HD-GYP (Pseudomonas aeruginosa, UniProt Q9HV27); test: RP-HPLC of nucleotides, turnover; assay type: biochemical; details: REC domain removed, not phosphorylated; pH 8, 30 °C, Mg2+ and/or Mn2+
T1 construct: gene PA4781; HD-GYP domain, first 111 residues (REC domain) removed, His-tag (pET28b), E. coli BL21(DE3); mainly monomer

[4] = protein phosphorylated with acetyl phosphate (extent unknown), pH 8, 30 °C
[5] = 10 mM MgCl2 and 2.5 mM MnCl2, 50 mM Tris-HCl pH 8, 150 mM NaCl, 30 °C, 0.64 µM enzyme
[6] = 50 mM Tris-HCl pH 8, 150 mM NaCl, 30 °C, may be apparent value (about 30% c-di-GMP still bound to protein)

T1 sequence (Q9HV27 112-393): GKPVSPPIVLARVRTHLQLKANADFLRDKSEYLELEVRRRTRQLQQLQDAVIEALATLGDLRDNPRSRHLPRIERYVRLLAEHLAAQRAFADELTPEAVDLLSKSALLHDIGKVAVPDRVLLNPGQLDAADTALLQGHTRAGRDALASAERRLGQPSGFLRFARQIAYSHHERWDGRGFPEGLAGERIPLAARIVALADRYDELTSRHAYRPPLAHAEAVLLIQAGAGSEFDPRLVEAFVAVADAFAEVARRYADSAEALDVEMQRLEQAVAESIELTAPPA

## PA4781 (Pseudomonas aeruginosa PAO1)
[1]; protein phosphorylated with acetyl phosphate (extent unknown), 10 mM MgCl2, pH 8, 30 °C
  Km: 119 ± 30 µM
[2]; [4]
  Km: 27 ± 8 µM
  kcat: 7.7±1x10^-4 s^-1

## PA4108 (Pseudomonas aeruginosa PAO1)
[1]; [5]
  Km: 20 ± 5 µM
  kcat: 0.00015 ± 1e-05 s⁻¹
[2]; [6]
  Km: 30 ± 9 µM
  kcat: 1.2±0.1x10^-3 s^-1

## Nc1nc2c(ncn2[C@@H]2O[C@@H]3COP(=O)(O)O[C@H]4[C@@H](O)[C@H](n5cnc6c(=O)[nH]c(N)nc65)O[C@@H]4COP(=O)(O)O[C@H]3[C@H]2O)c(=O)[nH]1 [c-di-GMP]
[3]
  RP-HPLC of nucleotides, turnover: displays little, but significant PDE activity
